Data: publication PMC7793260, “MreC and MreD balance the interaction between the elongasome proteins PBP2 and RodA” (PLoS Genetics, 2020)

Target: T1, PBP2 (wild type), fused to mKO or to mCherry (E. coli, UniProt P0AD65 1-633)
T1 construct: PBP2, peptidoglycan transpeptidase of the E. coli elongasome, wild type; mKO-PBP2 in all others; also called mKO-PBP2^WT; mKO-PBP2; source: E. coli LMC500, expressed from plasmid (15 uM IPTG), in fixed cells; not shown: mKO (donor construct, pWA004) or mCherry (acceptor construct), N-terminal, kept
T1 sequence (looked up): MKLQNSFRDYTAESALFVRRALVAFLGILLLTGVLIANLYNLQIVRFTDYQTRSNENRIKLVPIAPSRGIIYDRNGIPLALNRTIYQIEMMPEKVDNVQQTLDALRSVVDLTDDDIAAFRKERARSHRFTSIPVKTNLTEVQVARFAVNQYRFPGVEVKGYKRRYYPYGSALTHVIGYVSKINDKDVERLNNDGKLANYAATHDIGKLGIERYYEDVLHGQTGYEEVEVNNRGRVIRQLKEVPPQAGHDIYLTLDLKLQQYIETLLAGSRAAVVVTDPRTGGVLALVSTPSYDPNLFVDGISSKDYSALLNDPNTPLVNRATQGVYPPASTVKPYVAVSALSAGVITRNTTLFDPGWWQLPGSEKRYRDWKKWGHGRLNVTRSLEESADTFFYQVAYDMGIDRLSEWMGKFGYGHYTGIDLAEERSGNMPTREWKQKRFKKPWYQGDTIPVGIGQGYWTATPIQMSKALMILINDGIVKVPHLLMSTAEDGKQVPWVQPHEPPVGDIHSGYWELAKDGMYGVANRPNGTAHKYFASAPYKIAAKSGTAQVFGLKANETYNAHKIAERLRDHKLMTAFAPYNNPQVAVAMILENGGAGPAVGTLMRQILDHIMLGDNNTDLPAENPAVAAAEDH
Assay: FRET or BRET; as the two-plasmid FRET, cells treated with mecillinam (2 mg/L) for two mass doublings
Conditions: partners not purified

EfA (acceptor FRET efficiency): 7.9%
B1: RodA (wild type), fused to mCherry or to mKO (enzyme, E. coli, UniProt P0ABG7 1-370, looked up)
chain: MTDNPNKKTFWDKVHLDPTMLLILLALLVYSALVIWSASGQDIGMMERKIGQIAMGLVIMVVMAQIPPRVYEGWAPYLYIICIILLVAVDAFGAISKGAQRWLDLGIVRFQPSEIAKIAVPLMVARFINRDVCPPSLKNTGIALVLIFMPTLLVAAQPDLGTSILVALSGLFVLFLSGLSWRLIGVAVVLVAAFIPILWFFLMHDYQRQRVMMLLDPESDPLGAGYHIIQSKIAIGSGGLRGKGWLHGTQSQLEFLPERHTDFIFAVLAEELGLVGILILLALYILLIMRGLWIAARAQTTFGRVMAGGLMLILFVYVFVNIGMVSGILPVVGVPLPLVSYGGSALIVLMAGFGIVMSIHTHRKMLSKSV
notes: RodA, peptidoglycan glycosyltransferase of the E. coli elongasome; wild-type rodA gene; mCh-RodA in all others; also called mCh-RodA; mKO-RodA; source: E. coli LMC500, expressed from plasmid (15 uM IPTG), in fixed cells; not shown: mCherry (acceptor construct, pSAV047-RodA) or mKO (donor construct, pXL56), N-terminal, kept
